Source: patent US20060063234A1 (CRUCELL HOLLAND B V, published 2006)

Target: T1, EpCAM (epithelial cell adhesion molecule), human tumor antigen, on LS174T colon carcinoma cells (human, UniProt P16422 24-314)
T1 sequence (looked up): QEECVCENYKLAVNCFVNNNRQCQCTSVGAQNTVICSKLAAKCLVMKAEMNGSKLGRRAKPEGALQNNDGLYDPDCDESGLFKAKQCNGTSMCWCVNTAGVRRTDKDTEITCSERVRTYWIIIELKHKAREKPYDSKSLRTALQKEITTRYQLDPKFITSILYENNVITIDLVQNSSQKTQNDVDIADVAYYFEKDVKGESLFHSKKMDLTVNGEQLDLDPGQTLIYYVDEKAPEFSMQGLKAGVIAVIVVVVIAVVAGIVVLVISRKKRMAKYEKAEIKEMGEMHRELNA
Experiment: cell-based or functional assay

B1: anti-EpCAM IgM (PER.C6 produced recombinant human IgM, encoded by pEpcamIgM) (antibody)
light: QVQLVQSGAEVKKPGSSVRVSCKASGGTFSSYAISWVRQAPGQGLEWMGGIIPIFGTANYAQKFQGRVTITADESTSTAYMELSSLRSEDTAVYYCARDPFLHYWGQGTLVTVSTGSASAPTLFPLVSCENSPSDTSSVAVGCLAQDFLPDSITFSWKYKNNSDISSTRGFPSVLRGGKYAATSQVLLPSKDVMQGTDEHVVCKVQHPNGNKEKNVPLPVIAELPPKVSVFVPPRDGFFGNPRKSKLICQATGFSPRQIQVSWLREGKQVGSGVTTDQVQAEAKESGPTTYKVTSTLTIKESDWLSQSMFTCRVDHRGLTFQQNASSMCVPDQDTAIRVFAIPPSFASIFLTKSTKLTCLVTDLTTYDSVTISWTRQNGEAVKTHTNISESHPNATFSAVGEASICEDDWNSGERFTCTVTHTDLPSPLKQTISRPKGVALHRPDVYLLPPAREQLNLRESATITCLVTGFSPADVFVQWMQRGQPLSPEKYVTSAPMPEPQAPGRYFAHSILTVSEEEWNTGETYTCVVAHEALPNRVTERTVDKSTGKPTLYNVSLVMSDTAGTCY
heavy: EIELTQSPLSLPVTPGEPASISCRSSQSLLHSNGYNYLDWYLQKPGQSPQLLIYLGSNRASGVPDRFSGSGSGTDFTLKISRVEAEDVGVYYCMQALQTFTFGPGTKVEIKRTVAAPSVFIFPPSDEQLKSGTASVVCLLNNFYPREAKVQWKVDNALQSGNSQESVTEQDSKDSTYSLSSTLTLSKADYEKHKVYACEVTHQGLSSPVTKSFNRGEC
  complement dependent cytotoxicity on LS174T cells: potency relative to anti-EpCAM IgG: ~10 fold
